Test results published in patent US20200268901A1.

Biological target: human GITR on cells (activated human T cells; 3A9-hGITR cells) (human) (UniProt Q9Y5U5)
Test: flow cytometry on anti-CD3/CD28-activated human CD4 T cells, GMFI (PE); fitted value of a flat control curve, unit from the axis

Sequence of human GITR on cells (activated human T cells; 3A9-hGITR cells) (human) (Q9Y5U5 26-241): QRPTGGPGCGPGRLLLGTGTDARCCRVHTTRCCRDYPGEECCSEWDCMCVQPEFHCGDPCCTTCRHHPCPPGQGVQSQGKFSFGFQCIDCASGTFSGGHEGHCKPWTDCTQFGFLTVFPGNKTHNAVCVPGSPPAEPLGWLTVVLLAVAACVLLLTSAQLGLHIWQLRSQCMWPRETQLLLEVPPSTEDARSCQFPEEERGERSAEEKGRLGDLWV

EC50: 132 nM
Substance: hIgG1 Isotype Control (antibody)
